Reference: paper PMC6442593
Several values for one entry are separate records, joined by “and”; a condition that tells them apart may be missing. Equal entries are not always repeated.

Target: uPAR-tagged soluble human GPIHBP1-S107C (human) (UniProt Q8IV16)
Assay: density gradient ultracentrifugation

stoichiometry N: 2 and 3
Substance: uPAR-tagged soluble human GPIHBP1-S107C (from UniProt Q8IV16 21-151) (domain or fragment)
